{"source": "patent US20240317845A1", "about": "(NINGBO SANSHENG BIOLOGICAL TECHNOLOGY, published 2024)", "key": {"[1]": {"target": "T1, 6-25 fragment of inhibin α-subunits coupled to chicken ovalbumin (OVA) (porcine (fragment said to be 100% …, UniProt P01012 2-386, chemically coupled to chicken ovalbumin (OVA)))", "T1 construct": "also called antigenic peptide; 6-25 fragment of inhibin a subunits", "T1 sequence (peptide, as listed by the source limits assumed, chain 1 of 2)": "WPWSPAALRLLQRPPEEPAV", "T1 sequence (P01012 2-386 limits assumed, chain 2 of 2)": "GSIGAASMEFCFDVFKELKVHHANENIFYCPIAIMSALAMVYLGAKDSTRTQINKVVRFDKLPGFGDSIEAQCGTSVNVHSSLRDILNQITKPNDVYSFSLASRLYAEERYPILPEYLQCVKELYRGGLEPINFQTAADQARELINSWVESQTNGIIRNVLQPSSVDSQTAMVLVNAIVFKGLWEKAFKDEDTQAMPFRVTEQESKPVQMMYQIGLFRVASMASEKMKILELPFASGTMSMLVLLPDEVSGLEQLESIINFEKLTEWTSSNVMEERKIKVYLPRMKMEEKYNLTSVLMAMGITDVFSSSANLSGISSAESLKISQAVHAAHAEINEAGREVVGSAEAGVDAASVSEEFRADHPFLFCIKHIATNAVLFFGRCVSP", "test": "indirect ELISA, plate coated with 6-25 fragment-OVA, culture supernatant, replicate 1", "method": "(§1) The 6-25 fragment of inhibin α-subunits coupled to chicken ovalbumin (OVA) were diluted to a sodium bicarbonate solution having a pH9.6 at a concentration of 10 μg/ml, and 100 μl per well was added to the microtiter plate (96 well plate). The plate was set aside overnight at 2-8° C. overnight, and taken out for washing and then patted dry next day, 5% BSA was added into the plate to block, 200 μl per well, and incubated at 37° C. for 1 h;\n(§2) The plate was washed and patted dry. 100 μl of the fused culture supernatant was taken under aseptical conditions, added to the microtiter plate, and incubated at 37° C. for 1 h;\n(§3) After washing the plate, chromogenic solution was added into the plate, 100 μl per well, and incubated at 37° C. for 5-10 minutes. 50 μl of stop solution was added into the plate, and the absorbance value was read at a wavelength of 460 nm."}, "[2]": {"target": "T1, 6-25 fragment of inhibin α-subunits …", "test": "indirect ELISA, plate coated with 6-25 fragment-OVA, culture supernatant, replicate 2", "method": "as §1, §2, §3"}}}
{"binder": "anti-inhibin monoclonal antibody 1E5 secreted by hybridoma cell line 1E57 (antibody, V domains shown, Mouse hybridoma antibody; Tested as culture supernatant, as ascites and as Protein G purified ascites antibody; also called 1E57 culture supernatant; ascites-derived monoclonal antibody 1E5) VH: EVKLVESGPELKKPGETVKISCKASGYTFTDYSMHWVKQAPGKGLKWMGWINTETGEPTYADDFKGRFAFSLETSASTAYLQINNLKNEDTATYFCAYYGPPTYSLDYWGQGASVTVSS VL: DIQMTQTTSSLSASLGDRVTISCRASQGISNYLNWYQQKPDGTVKLLIYYTSRLLSGVPSRFSGSGSGTDYSLTISNLEQEDIATYFCQQGYTLPFTFGSGTKLEIK", "values": [{"measurement": "absorbance at dilution ratio 200", "setting": "[1]", "value": 3.31, "unit": "absorbance"}, {"measurement": "absorbance at dilution ratio 400", "setting": "[1]", "value": 2.8, "unit": "absorbance"}, {"measurement": "absorbance at dilution ratio 800", "setting": "[1]", "value": 2.92, "unit": "absorbance"}, {"measurement": "absorbance at dilution ratio 1600", "setting": "[1]", "value": 2.28, "unit": "absorbance"}, {"measurement": "absorbance at dilution ratio 3200", "setting": "[1]", "value": 1.69, "unit": "absorbance"}, {"measurement": "absorbance at dilution ratio 6400", "setting": "[1]", "value": 1.28, "unit": "absorbance"}, {"measurement": "absorbance at dilution ratio 12800", "setting": "[1]", "value": 0.823, "unit": "absorbance"}, {"measurement": "absorbance at dilution ratio 25600", "setting": "[1]", "value": 0.613, "unit": "absorbance"}, {"measurement": "absorbance at dilution ratio 51200", "setting": "[1]", "value": 0.359, "unit": "absorbance"}, {"measurement": "absorbance at dilution ratio 102400", "setting": "[1]", "value": 0.263, "unit": "absorbance"}, {"measurement": "absorbance at dilution ratio 200", "setting": "[2]", "value": 3.25, "unit": "absorbance"}, {"measurement": "absorbance at dilution ratio 400", "setting": "[2]", "value": 2.36, "unit": "absorbance"}, {"measurement": "absorbance at dilution ratio 800", "setting": "[2]", "value": 2.08, "unit": "absorbance"}, {"measurement": "absorbance at dilution ratio 1600", "setting": "[2]", "value": 1.9, "unit": "absorbance"}, {"measurement": "absorbance at dilution ratio 3200", "setting": "[2]", "value": 1.43, "unit": "absorbance"}, {"measurement": "absorbance at dilution ratio 6400", "setting": "[2]", "value": 0.831, "unit": "absorbance"}, {"measurement": "absorbance at dilution ratio 12800", "setting": "[2]", "value": 0.648, "unit": "absorbance"}, {"measurement": "absorbance at dilution ratio 25600", "setting": "[2]", "value": 0.398, "unit": "absorbance"}, {"measurement": "absorbance at dilution ratio 51200", "setting": "[2]", "value": 0.256, "unit": "absorbance"}, {"measurement": "absorbance at dilution ratio 102400", "setting": "[2]", "value": 0.189, "unit": "absorbance"}]}
